Reference: paper PMC5470874

System: Matrin 3 (endogenous, HCT116 nuclear extract) (Homo sapiens (HCT116))
Experiment: pull-down + mass spectrometry
Settings: rMatrin 3 pulldown: 25 mM Tris-HCl pH 7.5, 150 mM KCl, 0.1% Triton X-100, 100 ug/ml BSA, 2 mM DTT, 5% glycerol, room temperature, 2 hr

Substance: Bi-PINCR (full-length PINCR transcript)
- binding signal (fold over Bi-LUC) (DOXO-treated nuclear extract): 16
- binding signal (fold over Bi-LUC) (untreated nuclear extract): 8
